Reference: PMC11346345 (Cell reports, 2024)

Molecular target: recombinant GP38 of CCHFV Afg09-2990 (Crimean-Congo hemorrhagic fever virus, …, UniProt E5FEZ4, strain)
Test: SPR

B1: ADI-58048 IgG (antibody, V domains shown)
VH: QLQLQESGPGLVKPSETLSLTCTVSGGSITTSHYYWGWIRQPPGKGLEWVGSMYYSGGIYYNPSLKGRVTISVDTSKNQFSLKLSSVTAADTAVYYCALADAPDDAFDIWGQGTMVTVSS
VL: DIQMTQSPSSLSAFVGDRVTITCRASQSISSYLNWYQQKPGKAPKLLIYAASTLQSGVPSRFSGSGSGTDFTLTISSLQSEDFATYYCQESYSIPFTFGPGTKVDIK
fold reduction in binding: ~27 fold
